This is an account of results in patent JP2008532476A (dated 2008).

By Kd is commonly meant a measure of binding affinity in units of concentration.

In this test the target is T1, recombinant mouse Tie1-Fc (mouse, UniProt Q06806 23-755).
T1 construct: extracellular domain; also called mouse Tie1-Fc antigen; mouse Tie1-Fc fusion protein; not shown: Fc
T1 sequence (looked up): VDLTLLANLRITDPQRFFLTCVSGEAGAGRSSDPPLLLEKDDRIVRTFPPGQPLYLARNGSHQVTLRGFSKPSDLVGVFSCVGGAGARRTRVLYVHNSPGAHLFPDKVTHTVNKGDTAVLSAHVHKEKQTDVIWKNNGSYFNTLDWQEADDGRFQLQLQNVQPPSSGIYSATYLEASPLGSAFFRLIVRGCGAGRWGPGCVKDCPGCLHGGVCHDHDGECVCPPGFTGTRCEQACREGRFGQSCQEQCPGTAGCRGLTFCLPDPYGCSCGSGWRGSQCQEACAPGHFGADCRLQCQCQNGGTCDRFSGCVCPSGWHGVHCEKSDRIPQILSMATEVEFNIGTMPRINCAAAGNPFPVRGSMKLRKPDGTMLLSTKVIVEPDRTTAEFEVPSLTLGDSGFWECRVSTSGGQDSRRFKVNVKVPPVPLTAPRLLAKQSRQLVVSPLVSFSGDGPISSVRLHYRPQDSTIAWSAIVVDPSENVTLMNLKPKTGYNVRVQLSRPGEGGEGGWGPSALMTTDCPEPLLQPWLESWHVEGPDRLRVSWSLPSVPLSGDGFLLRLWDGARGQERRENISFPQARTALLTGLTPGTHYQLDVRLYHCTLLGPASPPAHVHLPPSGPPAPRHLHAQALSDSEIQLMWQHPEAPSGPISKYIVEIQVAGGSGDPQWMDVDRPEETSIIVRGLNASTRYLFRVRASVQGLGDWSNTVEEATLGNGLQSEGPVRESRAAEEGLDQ
Put plainly: SPR (BIAcore 3000), Fab as analyte over mouse Tie1-Fc immobilised on a sensor chip. (In SPR one partner is held on a chip, and binding of the other changes the refractive index at the surface.)

B1: E3b Fab (germline E3 (DX-2220) Fab) (Fab, V domains shown)
VH: EVQLLESGGGLVQPGGSLRLSCAASGFTFSMYGMVWVRQAPGKGLEWVSVISPSGGNTGYADSVKGRFTISRDNSKNTLYLQMNSLRAEDTAVYYCARAPRGYSYGYYYWGQGTLVTVSS
VL: DIQMTQSPSSLSASVGDRVTITCRASQGIGHYLAWYQQKPGKVPKLLIYTASTLQSGVPSRFSGSGSGTDFTLTISSLQPEDVATYYCQQFNSYPHTFGQGTRLEIK
On to B1, for which the equilibrium dissociation constant (Kd) is around 3 nM.
